From patent US5126322A, “Pancreatic secretory tryspin inhibitor and variants thereof produced by a recombinant host therefore and pharmaceutical use thereof” (Bayer Aktiengesellschaft, priority 1987, dated 1992) come the findings set out here.

Holding throughout (format): biochemical
The target in test [1] is T1, Pancreatic Elastase (porcine) (Sus scrofa, UniProt P00772).
T1 construct: purchased Elastin Products Company, Inc
The test is described as follows: Enzyme inhibition assay, pancreatic elastase, release of p-nitroaniline from Ac-Ala-Ala-Pro-Ala-pNA. The conditions noted are these: 500 ng enzyme/assay. As for the experimental part: (§1) Human leukocyte elastase (HLE) and porcine pancreas elastase (PPE) were obtained from Elastin Products Company, Inc. P.O. Box 147, Pacific, Miss. 63069/USA.
(§2) The substrates: MeOSuc-Ala-Ala-Pro-Val-pNA (HLE), Ac-Ala-Ala-Pro-Ala-pNA and Suc-Ala-Ala-Ala-pNA (PPE and Suc-Ala-Ala-Pro-Phe-pNA (CHT) were obtained from Bachem, Bubendorf/Switzerland.
(§3) Culture filtrates were treated as follows: 10 μl TWEEN 80 solution (0.5%) and 50 μl perchloric acid (70%) were added to 1 ml of culture filtrate. After 20 min, these samples were centrifuged, and the clear supernatants were neutralized by the addition of 225 μl saturated solution of tris base. Aliquots of these solutions were taken to determine inhibitory activities.
(§4) Generally, the samples were diluted with the appropriate buffer volume, and the enzyme was added. After the preincubation time, substrate was added (substrates are dissolved in DMSO in a concentration of 0.1M and diluted with buffer to give the concentration of the stock solution). The release of p-nitroaniline from the substrates was measured at 405 nm either continuously or after quenching the reaction by adding acetic acid. 100%- values were determined by running samples where inhibitors were omitted. Percentage inhibition was calculated using the formula: [formula] […]

Test [2] has as its target T2, Granulocytic Elastase (human) (Homo sapiens, UniProt P08246).
T2 construct: purchased Elastin Products Company, Inc
T2 sequence (P08246 30-267): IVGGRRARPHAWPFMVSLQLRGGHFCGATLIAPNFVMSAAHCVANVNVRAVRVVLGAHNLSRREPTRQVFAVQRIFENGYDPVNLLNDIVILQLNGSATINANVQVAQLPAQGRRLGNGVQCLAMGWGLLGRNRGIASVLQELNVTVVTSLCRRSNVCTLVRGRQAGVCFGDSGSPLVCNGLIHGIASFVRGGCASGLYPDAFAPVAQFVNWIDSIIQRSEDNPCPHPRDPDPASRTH
The test is described as follows: Enzyme inhibition assay, leukocyte (granulocytic) elastase, release of p-nitroaniline from MeOSuc-Ala-Ala-Pro-Val-pNA. The conditions noted are these: 120 ng enzyme/assay. The method, then: as §1, §2, §3, §4

A further test addresses T3, α-Chymotrypsin (bovine) (Bos taurus, UniProt P00766).
T3 construct: purchased E. Merck, Darmstadt
Put plainly: Enzyme inhibition assay, α-chymotrypsin, release of p-nitroaniline from Suc-Ala-Ala-Pro-Phe-pNA. The note with it: 50 ng enzyme/assay. As for the experimental part: Bovine α-chymotrypsin (CHT) was obtained from E. Merck, Darmstadt.
as §2, §3, §4

Some results are limits rather than exact numbers.

T1 sequence (P00772 27-266): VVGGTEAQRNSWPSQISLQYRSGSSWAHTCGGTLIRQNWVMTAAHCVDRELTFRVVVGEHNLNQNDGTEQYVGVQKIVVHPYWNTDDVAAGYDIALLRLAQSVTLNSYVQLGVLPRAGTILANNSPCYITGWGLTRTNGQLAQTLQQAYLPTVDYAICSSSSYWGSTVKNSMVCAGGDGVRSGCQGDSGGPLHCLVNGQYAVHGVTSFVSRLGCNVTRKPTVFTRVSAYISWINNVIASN

“Asn^-13 -Ala^-12 -Glu^-11 -Thr^-10 -Ala^-9 -His^-8 -Lys^-7 -Ser^-6 -Asn^-5 -Glu^-4 -Val^-3 -Thr^-2 -Met^-1 -Leu^18 -Glu^19 -Arg^21 -Ala^32 -PSTI ({Asn-Ala-Glu-Thr-Ala-H2N}-KSNEVTMDSLGREAKCYNELNGCTLEYRPVCGTDGNTYANECVLCFENRKRQTSILIQKSGPC; ends and bridges not checked; UniProt P00995 24-79, looked up, variant K18L I19E D21R P32A) [PSTI-4A [Minifusion]]”: in test [1], the “amount of inhibitor giving 50% inhibition, Pancreatic Elastase (porcine)” value was 68 ng. In addition, the “amount of inhibitor giving 50% inhibition, Granulocytic Elastase (human)” value in test [2] came out at 15 ng. In addition, in the test with α-Chymotrypsin (bovine), the “amount of inhibitor giving 50% inhibition, α-Chymotrypsin (bovine)” value came out at 6 ng.
“Leu^18 -Ala^32 -PSTI (DSLGREAKCYNELNGCTLIYDPVCGTDGNTYANECVLCFENRKRQTSILIQKSGPC; UniProt P00995 24-79, looked up, variant K18L P32A) [PSTI-1A, PSTI variant from cyanogen bromide cleavage of the PSTI-1A minifusion protein]”: the “amount of inhibitor giving 50% inhibition, Pancreatic Elastase (porcine)” value in test [1] was 1200 ng. For the same substance, the “amount of inhibitor giving 50% inhibition, Granulocytic Elastase (human)” value in test [2] is 18 ng. Moreover, in the test with α-Chymotrypsin (bovine), the “amount of inhibitor giving 50% inhibition, α-Chymotrypsin (bovine)” value stood at 100 ng.
The matching figures for “Leu^18 -Glu^19 -Arg^21 -Ala^32 -PSTI (DSLGREAKCYNELNGCTLEYRPVCGTDGNTYANECVLCFENRKRQTSILIQKSGPC; UniProt P00995 24-79, looked up, variant K18L I19E D21R P32A) [PSTI-4A, PSTI variant obtained from the minifusion protein by BrCN-cleavage]”: 75 ng, 17 ng and 7 ng.
In the same order, the values of “Met^-1 -Leu^18 -Glu^19 -Arg^21 -Ala^32 -PSTI (DSLGREAKCYNELNGCTLEYRPVCGTDGNTYANECVLCFENRKRQTSILIQKSGPC; N-terminal Met; UniProt P00995 24-79, looked up, variant K18L I19E D21R P32A) [Met-PSTI-4A]” are 73 ng, 16 ng and 8 ng.
With “Tyr^18 -Glu^19 -Arg^21 -PSTI (DSLGREAKCYNELNGCTYEYRPVCGTDGNTYPNECVLCFENRKRQTSILIQKSGPC; UniProt P00995 24-79, looked up, variant K18Y I19E D21R) [PSTI-3P]”, the “amount of inhibitor giving 50% inhibition, Granulocytic Elastase (human)” value in test [2] is reported as greater than 5000 ng. The “amount of inhibitor giving 50% inhibition, α-Chymotrypsin (bovine)” value with α-Chymotrypsin (bovine) is 7 ng.
As for “Val^18 -Glu^19 -Arg^21 -PSTI (DSLGREAKCYNELNGCTVEYRPVCGTDGNTYPNECVLCFENRKRQTSILIQKSGPC; UniProt P00995 24-79, looked up, variant K18V I19E D21R) [PSTI-5P]”, the “amount of inhibitor giving 50% inhibition, Pancreatic Elastase (porcine)” value in test [1] is 70 ng. For the same substance, in test [2], the “amount of inhibitor giving 50% inhibition, Granulocytic Elastase (human)” value was 15 ng. The “amount of inhibitor giving 50% inhibition, α-Chymotrypsin (bovine)” value with α-Chymotrypsin (bovine) is listed as 100 ng.
